Experimental data as given in paper PMC10858199, “Amyloid-β aggregates activate peripheral monocytes in mild cognitive impairment” (Nature Communications, 2024).

Columns and labels:
[1] = target: synthetic, predominantly monomeric amyloid-β (M-Aβ) (human) (UniProt P05067); test: SPR; BIAcore 3000, CM-4 chips; monomeric Aβ, aggregated Aβ (100 fmol Aβ42/mm^2) or iC3b amine-coupled; I domains injected at 20-10000 nM in 150 mM NaCl, 1 mM MgCl2, 5.0 mM HEPES (pH 7.4); contact 180 s, dissociation 400 s; two-dimensional distribution of 1:1 interactions fitted with EVILFIT
[2] = target: in vitro-aggregated amyloid-β (A-Aβ) (human) (UniProt P05067); test: as above

**Q.** Which Kd [1] does the source give for “CR3 I domain, stabilized in the activated conformation (domain or fragment)” here?
**A.** 79 µM

**Q.** Which results are given for “CR4 I domain, stabilized in the activated conformation (from UniProt P20702 20-1101) (domain or fragment)”?
**A.** KD, high-affinity class of binding sites [2]: 0.016 nM; koff, high-affinity class of binding sites [2]: 0.00025 s⁻¹; koff, moderate-affinity class of binding sites [2]: 5e-05 s⁻¹
